# Results: patent publication US20210079088A1 (published 2021)
# Molecular target: T1, soluble human IL-4Rα (sIL-4Rα; PEPRO TECH, Catalog Number: 200-04R) (human, UniProt P24394 26-232)
# T1 construct: Bought protein; also called shIL-4Rα; soluble hIL-4 Rα
# T1 sequence: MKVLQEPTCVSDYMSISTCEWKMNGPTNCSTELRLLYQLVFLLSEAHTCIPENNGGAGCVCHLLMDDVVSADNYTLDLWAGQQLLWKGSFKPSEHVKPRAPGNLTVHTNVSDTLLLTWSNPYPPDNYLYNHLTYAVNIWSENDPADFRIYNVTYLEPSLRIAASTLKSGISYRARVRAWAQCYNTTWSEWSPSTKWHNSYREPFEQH
# Test: ELISA, coated sIL-4Rα, culture supernatant
# Procedure: Sample to be tested: For each antibody of the present invention, 10 μl and 2 μl of the culture supernatant of Expi293 cells expressing the antibody after transient transfection (the medium was Expi293 Expression Medium, Invitrogen, Catalog Number: A1435102; suspension culture was performed for 4 days at 100 rpm in a 8% CO2 incubator) were respectively added to 990 μl and 998 μl of PBS to prepare antibody samples to be tested of 1:100 and 1:500 dilutions.
# 100 μl of 100 μg/ml sIL-4Rα solution was added to 9.90 ml of PBS, mixed up and down, and then an antigen coating buffer of 1.0 μg/ml was obtained. The prepared antigen coating buffer was added to a 96-well ELISA plate (Corning) with a volume of 100 μl per well. The 96-well ELISA plate was incubated overnight in a refrigerator at 4° C. On the next day, the solution therein was discarded, and PBS containing 2% BSA was added to the 96-well ELISA plate row by row with a volume of 300 μl per well. The 96-well ELISA plate was incubated for 2 hours in a refrigerator at 4° C. Then the PBS containing 2% BSA was discarded and the plate was washed 3 times with PBST. Diluted antibodies to be tested were sequentially added to the corresponding wells, while the normal cell culture supernatants, as negative control samples, were added too. Three duplicate wells were made for each sample with a volume of 100 μl per well. The ELISA plate was wrapped with preservative film (or covered) and incubated for 1 h at 10° C. in a constant temperature incubator. Subsequently, the 96-well ELISA plate was taken out, and the solution therein was discarded. After washing with PBST for 3 times, TMB solution (Solarbio, Catalog Number: PR1200) was added to the 96-well ELISA plate row by row with a volume of 100 μl per well. The 96-well ELISA plate was placed at room temperature for 5 minutes, and 2 M H2SO4 solution was added in immediately to terminate the reaction. The 96-well ELISA plate was placed in flexstation 3 (Molecular Devices), the values of OD450 were read, and the data were collected, calculated and analyzed. Results were expressed relative to the affinity of control antibody 1.
row,Binder,OD450/OD450 Control antibody 1
1,"L1000H1007 (antibody, V domains shown) VH: EVQLVQSGGGLVHPGGSLRLSCAGSGFTFSRNAMFWVRQAPGKGLEWVSGIGTGGATSYADSVKGRFTISRDNAKNSLYLQMNSLRAEDMAVYYCARGRYYFDYWGQGTLVTVSS VL: not shown",0.37 ratio to control antibody 1
2,"L1000H1012 (antibody, V domains shown) VH: EVQLVQSGGGLVHPGGSLRLSCAGSGFTFSRNAMFWVRQAPGKGLEWVSGIGTGGATSYADSVKGRFTISRDNAKNSLYLQMNSLRAEDTAVYYCARGRYYFDYWGQGTLVTVSS VL: not shown",0.18 ratio to control antibody 1
3,"L1000H1024 (antibody, V domains shown) VH: EVQLVQSGGGLVQPGGSLRLSCAGSGFTFSRNAMFWVRQAPGKGLEWVSGIGTGGATSYADSVKGRFTISRDNAKNSLYLQMNSLRAEDTAVYYCARGRYYFPWWGQGTLVTVSS VL: not shown",0.26 ratio to control antibody 1
4,"L1000H1025 (antibody, V domains shown) VH: EVQLVQSGGGLVHPGGSLRLSCAASGFTFSRNAMFWVRQAPGKGLEWVSGIGTGGATSYADSVKGRFTISRDNAKNSLYLQMNSLRAEDTAVYYCARGRYYFPWWGQGTLVTVSS VL: not shown",0.21 ratio to control antibody 1
5,"L1000H1016 (antibody, V domains shown) VH: EVQLVQSGGGLVHPGGSLRLSCAGSGFTFSRNAMFWVRQAPGKGLEWVSGIGTGGATNYADSVKGRFTISRDNAKNSLYLQMNSLRAEDMAVYYCARGRYYFPWWGQGTLVTVSS VL: not shown",0.61 ratio to control antibody 1
6,"L1000H1021 (antibody, V domains shown) VH: EVQLVQSGGGLVHPGGSLRLSCAGSGFTFSRNAMFWVRQAPGKGLEWVSGIGTGGATNYADSVKGRFTISRDNAKNSLYLQMNSLRAEDTAVYYCARGRYYFPWWGQGTLVTVSS VL: not shown",0.35 ratio to control antibody 1
7,"L1000H1015 (antibody, V domains shown) VH: EVQLVESGGGLVQPGGSLRLSCAGSGFTFSRNAMFWVRQAPGKGLEWVSGIGTGGATNYADSVKGRFTISRDNAKNSLYLQMNSLRAEDMAVYYCARGRYYFDYWGQGTLVTVSS VL: not shown",0.65 ratio to control antibody 1
8,"L1000H1027 (antibody, V domains shown) VH: EVQLVESGGGLVHPGGSLRLSCAASGFTFSRNAMFWVRQAPGKGLEWVSGIGTGGATSYADSVKGRFTISRDNAKNSLYLQMNSLRAEDTAVYYCARGRYYFPWWGQGTLVTVSS VL: not shown",0.44 ratio to control antibody 1
9,"L1000H1020 (antibody, V domains shown) VH: EVQLVQSGGGLVHPGGSLRLSCAGSGFTFSRNAMFWVRQAPGKGLEWVSGIGTGGATSYADSVKGRFTISRDNAKNSLYLQMNSLRAEDMAVYYCARGRYYFPWWGQGTLVTVSS VL: not shown",0.23 ratio to control antibody 1
10,"L1000H1001 (antibody, V domains shown) VH: EVQLVESGGGLVQPGGSLRLSCAASGFTFSRNAMFWVRQAPGKGLEWVSGIGTGGATSYADSVKGRFTISRDNAKNSLYLQMNSLRAEDTAVYYCARGRYYFPWWGQGTLVTVSS VL: not shown",0.7 ratio to control antibody 1
11,"L1000H1036 (antibody, V domains shown) VH: EVQLVQSGGGLVHPGGSLRLSCAGSGFTFSRNAMFWVRQAPGEGLEWVSGIGTGGATNYADSVKGRFTISRDNAKNSLYLQMNSLRAEDMAVYYCARGRYYFDYWGQGTLVTVSS VL: not shown",0.1 ratio to control antibody 1
12,"L1000H1029 (antibody, V domains shown) VH: EVQLVESGGGLVQPGGSLRLSCAASGFTFSRNAMFWVRQAPGKGLEWVSGIGTGGATSYADSVKGRFTISRDNAKNSLYLQMNSLRAEDMAVYYCARGRYYFPWWGQGTLVTVSS VL: not shown",0.8 ratio to control antibody 1
13,"L1000H1023 (antibody, V domains shown) VH: EVQLVESGGGLVHPGGSLRLSCAGSGFTFSRNAMFWVRQAPGKGLEWVSGIGTGGATSYADSVKGRFTISRDNAKNSLYLQMNSLRAEDTAVYYCARGRYYFPWWGQGTLVTVSS VL: not shown",0.63 ratio to control antibody 1
14,"L1000H1008 (antibody, V domains shown) VH: EVQLVQSGGGLVHPGGSLRLSCAGSGFTFSRNAMFWVRQAPGKGLEWVSGIGTGGATNYADSVKGRFTISRDNAKNSLYLQMNSLRAEDTAVYYCARGRYYFDYWGQGTLVTVSS VL: not shown",0.21 ratio to control antibody 1
15,"L1000H1030 (antibody, V domains shown) VH: EVQLVESGGGLVQPGGSLRLSCAASGFTFSRNAMFWVRQAPGKGLEWVSGIGTGGATNYADSVKGRFTISRDNAKNSLYLQMNSLRAEDTAVYYCARGRYYFPWWGQGTLVTVSS VL: not shown",0.2 ratio to control antibody 1
16,"L1000H1014 (antibody, V domains shown) VH: EVQLVQSGGGLVQPGGSLRLSCAASGFTFSRNAMFWVRQAPGKGLEWVSGIGTGGATNYADSVKGRFTISRDNAKNSLYLQMNSLRAEDMAVYYCARGRYYFDYWGQGTLVTVSS VL: not shown",1.06 ratio to control antibody 1
17,"L1000H1026 (antibody, V domains shown) VH: EVQLVESGGGLVQPGGSLRLSCAGSGFTFSRNAMFWVRQAPGKGLEWVSGIGTGGATSYADSVKGRFTISRDNAKNSLYLQMNSLRAEDTAVYYCARGRYYFPWWGQGTLVTVSS VL: not shown",0.11 ratio to control antibody 1
18,"L1000H1013 (antibody, V domains shown) VH: EVQLVESGGGLVHPGGSLRLSCAASGFTFSRNAMFWVRQAPGKGLEWVSGIGTGGATNYADSVKGRFTISRDNAKNSLYLQMNSLRAEDMAVYYCARGRYYFDYWGQGTLVTVSS VL: not shown",0.38 ratio to control antibody 1
19,"L1000H1010 (antibody, V domains shown) VH: EVQLVQSGGGLVQPGGSLRLSCAGSGFTFSRNAMFWVRQAPGKGLEWVSGIGTGGATNYADSVKGRFTISRDNAKNSLYLQMNSLRAEDMAVYYCARGRYYFDYWGQGTLVTVSS VL: not shown",0.11 ratio to control antibody 1
20,"L1000H1032 (antibody, V domains shown) VH: EVQLVESGGGLVQPGGSLRLSCAASGFTFSRNAMFWVRQAPGKGLEWVSGIGTGGATNYADSVKGRFTISRDNAKNSLYLQMNSLRAEDMAVYYCARGRYYFPWWGQGTLVTVSS VL: not shown",0.53 ratio to control antibody 1
21,"L1000H1009 (antibody, V domains shown) VH: EVQLVESGGGLVHPGGSLRLSCAGSGFTFSRNAMFWVRQAPGKGLEWVSGIGTGGATNYADSVKGRFTISRDNAKNSLYLQMNSLRAEDMAVYYCARGRYYFDYWGQGTLVTVSS VL: not shown",0.56 ratio to control antibody 1
22,"L1000H1028 (antibody, V domains shown) VH: EVQLVQSGGGLVQPGGSLRLSCAASGFTFSRNAMFWVRQAPGKGLEWVSGIGTGGATSYADSVKGRFTISRDNAKNSLYLQMNSLRAEDTAVYYCARGRYYFPWWGQGTLVTVSS VL: not shown",0.33 ratio to control antibody 1
23,"L1000H1035 (antibody, V domains shown) VH: EVQLVQSGGGLVHPGGSLRLSCAGSGFTFSRNAMHWVRQAPGKGLEWVSGIGTGGATNYADSVKGRFTISRDNAKNSLYLQMNSLRAEDMAVYYCARGRYYFDYWGQGTLVTVSS VL: not shown",0.22 ratio to control antibody 1
24,"L1000H1031 (antibody, V domains shown) VH: EVQLVESGGGLVQPGGSLRLSCAASGFTFSRNAMFWVRQAPGKGLEWVSGIGTGGATSYADSVKGRFTISRDNAKNSLYLQMNSLRAEDTAVYYCARGRYYFDYWGQGTLVTVSS VL: not shown",1.14 ratio to control antibody 1
25,"L1000H1022 (antibody, V domains shown) VH: EVQLVQSGGGLVHPGGSLRLSCAGSGFTFSRNAMFWVRQAPGKGLEWVSGIGTGGATSYADSVKGRFTISRDNAKNSLYLQMNSLRAEDTAVYYCARGRYYFPWWGQGTLVTVSS VL: not shown",0.18 ratio to control antibody 1
26,"L1000H1037 (antibody, V domains shown) VH: EVQLVQSGGGLVHPGGSLRLSCAGSGFTFSRNAMFWVRQAPGKGLEWVSGIGTGGATNYADSVKGRFTISRDEAKNSLYLQMNSLRAEDMAVYYCARGRYYFDYWGQGTLVTVSS VL: not shown",-0.01 ratio to control antibody 1
